Data as given in US20220251191A1 (ARCH ONCOLOGY, published 2022).
Changes are numbered by the printed parent chain. Each block holds one binder with its values, some of them ahead of it.

How the values were obtained:
[1] = biological target: T1, recombinant biotin tagged IL-7 Receptor-alpha (IL-7Rα) (Acrobiosystems #IL-7-H82F8) (UniProt P16871 21-236, biotin tag (site not stated)); experiment: TR-FRET ligand-receptor binding assay, equilibrium fit
T1 construct: Bought reagent; also called IL-7Ra; α receptor
T1 sequence (looked up): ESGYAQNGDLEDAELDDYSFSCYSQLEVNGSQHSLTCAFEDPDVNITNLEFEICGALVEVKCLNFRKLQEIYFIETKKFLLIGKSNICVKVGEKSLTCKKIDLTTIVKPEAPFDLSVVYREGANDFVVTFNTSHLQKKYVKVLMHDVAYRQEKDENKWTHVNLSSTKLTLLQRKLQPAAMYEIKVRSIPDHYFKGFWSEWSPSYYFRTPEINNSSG
Procedure: (§1) IL-7 binding affinity was determined by measuring the TR-FRET fluorescence signal at a range of concentrations of recombinant IL-7 and IL-7 Receptor-alpha (IL-7Rα). In a buffer of PBS (pH 7.4)+0.05% BSA and 0.005% Tween-20, make 4×stocks of 160 nM TR-FRET acceptor linked α6-his IgG (Perkin Elmer #TRF0105-M), 80 nM TR-FRET donor linked streptavidin (Perkin Elmer #AD0062), recombinant 6-his tagged IL-7 wildtype or mutant variant (at concentrations up to 160 nM), and recombinant biotin tagged IL-7Rα (Acrobiosystems #IL-7-H82F8) (at concentrations up to 80 nM). For each sample to be tested, 5 μL of the 4× stock of a6-his IgG linked acceptor is mixed with 5 μL of a 4×working stock of IL-7. Separately, for each sample, 5 μL of 4×TR-FRET donor linked to streptavidin is mixed with 5 μL of the 4×working stock of recombinant IL-7Rα linked to biotin. Mixtures were incubated at room temperature for 30 minutes during which the 10 μL of a6-his linked acceptor/IL-7 mix was distributed into indicated wells in 384-well shallow black ProxiPlate (Perkin Elmer #6008260) and kept covered from light. After the 30 min incubation, 10 μL of streptavidin linked donor/IL-7Ra mixture was placed in designated wells containing designated concentration of IL-7 plus acceptor. Plates were immediately spun at 750 rpm for 30 sec and then immediately placed in PHERAstar plate reader (BMG Labtech) to read TR-FRET signal. Continuously over the next 30 minutes, fluorescence for donor signal (337 nm excitation/620 nm emission) and acceptor signal (337 nm excitation/655 nm emission) are read. The TR-FRET binding signal is determined by taking the ratio of acceptor signal over donor signal and multiplying by 10,000. Equilibrium is defined at the time point where the readings plateau before fluorescence activity begins to decay. Equilibrium values are then fit to a standard equilibrium equation assuming single site binding using the graphing program GraFit (Erithacus Software).

[2] = biological target: T1, recombinant biotin tagged IL-7 …; experiment: binding analysis with two Kd parameters, in-house against commercially obtained IL-7 (taken to be TR-FRET on IL-7Rα)
[3] = biological target: T1, recombinant biotin tagged IL-7 …; experiment: TR-FRET, Expt. 1
Procedure: as §1, with “Mixtures were incubated at room temperature for 30 minutes during which the 10 μL of a6-his linked acceptor/IL-7 mix was distributed into indicated wells in 384-well shallow black ProxiPlate (Perkin Elmer #6008260) and kept covered from light. After the 30 min incubation, 10 μL of streptavidin linked donor/IL-7Ra mixture was placed in designated wells containing designated concentration of IL-7 plus acceptor.” left out, “Equilibrium values are then fit to a standard equilibrium equation assuming single site binding using the graphing program GraFit (Erithacus Software).” left out

[4] = biological target: T1, recombinant biotin tagged IL-7 …; experiment: TR-FRET, Expt. 2
Procedure: as §1, with “Mixtures were incubated at room temperature for 30 minutes during which the 10 μL of a6-his linked acceptor/IL-7 mix was distributed into indicated wells in 384-well shallow black ProxiPlate (Perkin Elmer #6008260) and kept covered from light. After the 30 min incubation, 10 μL of streptavidin linked donor/IL-7Ra mixture was placed in designated wells containing designated concentration of IL-7 plus acceptor.” left out, “Equilibrium values are then fit to a standard equilibrium equation assuming single site binding using the graphing program GraFit (Erithacus Software).” left out

[5] = biological target: T1, recombinant biotin tagged IL-7 …; experiment: TR-FRET, earlier analyses
[6] = biological target: T1, recombinant biotin tagged IL-7 …; experiment: TR-FRET, previous analyses
[7] = biological target: T1, recombinant biotin tagged IL-7 …; experiment: TR-FRET, without receptor γ (FIG. 5)
Procedure: as §1, with “Mixtures were incubated at room temperature for 30 minutes during which the 10 μL of a6-his linked acceptor/IL-7 mix was distributed into indicated wells in 384-well shallow black ProxiPlate (Perkin Elmer #6008260) and kept covered from light. After the 30 min incubation, 10 μL of streptavidin linked donor/IL-7Ra mixture was placed in designated wells containing designated concentration of IL-7 plus acceptor.” left out, “Equilibrium values are then fit to a standard equilibrium equation assuming single site binding using the graphing program GraFit (Erithacus Software).” left out

[8] = biological target: T1, recombinant biotin tagged IL-7 …; experiment: TR-FRET, only the α receptor present (FIG. 4)
Procedure: as §1, with “Mixtures were incubated at room temperature for 30 minutes during which the 10 μL of a6-his linked acceptor/IL-7 mix was distributed into indicated wells in 384-well shallow black ProxiPlate (Perkin Elmer #6008260) and kept covered from light. After the 30 min incubation, 10 μL of streptavidin linked donor/IL-7Ra mixture was placed in designated wells containing designated concentration of IL-7 plus acceptor.” left out, “Equilibrium values are then fit to a standard equilibrium equation assuming single site binding using the graphing program GraFit (Erithacus Software).” left out

[9] = biological target: T2, IL-7Rα with 20 nM receptor γ (UniProt P16871 21-236; P31785 23-262, biotin tag (site not stated)); experiment: TR-FRET; with gamma
T2 chain 1: T1 sequence (looked up)
T2 chain 2: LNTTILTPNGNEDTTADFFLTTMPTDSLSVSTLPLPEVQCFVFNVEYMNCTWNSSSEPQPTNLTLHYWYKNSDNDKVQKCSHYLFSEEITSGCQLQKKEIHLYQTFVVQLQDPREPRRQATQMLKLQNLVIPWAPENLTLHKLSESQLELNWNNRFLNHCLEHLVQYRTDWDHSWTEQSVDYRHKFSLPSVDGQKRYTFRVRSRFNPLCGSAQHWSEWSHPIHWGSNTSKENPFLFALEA

[10] = biological target: T3, IL-7Rα with 20 nM receptor γ (UniProt P16871 21-236; P31785 23-262, biotin tag (site not stated)); experiment: TR-FRET, with 20 nM receptor γ against without (FIG. 5)
T3 construct: Mixture of IL-7Rα and soluble receptor γ in the TR-FRET assay; The fit treated the receptor chains as one combined unit; also called IL-7Ra with the γ subunit; IL-7 with γ
T3 sequence (looked up) 1: T1 sequence (looked up)
T3 sequence (looked up) 2: T2 chain 2
Procedure: as §1, with “Mixtures were incubated at room temperature for 30 minutes during which the 10 μL of a6-his linked acceptor/IL-7 mix was distributed into indicated wells in 384-well shallow black ProxiPlate (Perkin Elmer #6008260) and kept covered from light. After the 30 min incubation, 10 μL of streptavidin linked donor/IL-7Ra mixture was placed in designated wells containing designated concentration of IL-7 plus acceptor.” left out, “Equilibrium values are then fit to a standard equilibrium equation assuming single site binding using the graphing program GraFit (Erithacus Software).” left out

[11] = biological target: T1, recombinant biotin tagged IL-7 …; experiment: TR-FRET, His-tagged IL-7 and biotin IL-7Rα, equilibrium fit (FIG. 3)
Procedure: as §1, with “Mixtures were incubated at room temperature for 30 minutes during which the 10 μL of a6-his linked acceptor/IL-7 mix was distributed into indicated wells in 384-well shallow black ProxiPlate (Perkin Elmer #6008260) and kept covered from light. After the 30 min incubation, 10 μL of streptavidin linked donor/IL-7Ra mixture was placed in designated wells containing designated concentration of IL-7 plus acceptor.” left out, “Equilibrium values are then fit to a standard equilibrium equation assuming single site binding using the graphing program GraFit (Erithacus Software).” left out

Kd [1]: 21.7 nM | fold higher Kd than in-house IL-7 [2]: ~4 fold
B1: IL-7 WT (commercial-sourced) (ligand)
chain: MDCDIEGKDGKQYESVLMVSIDQLLDSMKEIGSNCLNNEFNFFKRHICDANKEGMFLFRAARKLRQFLKMNSTGDFDLHLLKVSEGTTILLNCTGQVKGRKPAALGEAQPTKSLEENKSLKEQKKLNDLCFLKRLLQEIKTCWNKILMGTKEH
notes: also called commercially obtained IL-7; commercial IL-7

Kd [3]: 14 nM | Kd [4]: 20 nM | Kd [5]: 6.6 nM | Kd [6]: 6 nM | Kd [7]: 12.1 nM | Kd [8]: 20.2 nM | Kd [9]: 2.75 nM | fold increase in apparent affinity with receptor γ against without [10]: 5 fold | Kd [1]: 17 nM | Kd [11]: 5.44 nM
B2: IL-7 WT (in-house with His tag) (ligand)
chain: MDCDIEGKDGKQYESVLMVSIDQLLDSMKEIGSNCLNNEFNFFKRHICDANKEGMFLFRAARKLRQFLKMNSTGDFDLHLLKVSEGTTILLNCTGQVKGRKPAALGEAQPTKSLEENKSLKEQKKLNDLCFLKRLLQEIKTCWNKILMGTKEHENLYFQGHHHHHH
notes: also called IL-7 WT (in-house-His 6); in-house IL-7

Kd [3]: 37 nM | Kd [4]: 72 nM | Kd [8]: 34.8 nM | Kd [1]: 55 nM
B3: IL-7 S1 with C-terminal His-tag (ligand)
chain: B2 chain with K11I
notes: also called IL-7 mutant S1; S1 mutant
